Test results reported in paper PMC4150762, “The DEAD-box helicase Ded1 from yeast is an mRNP cap-associated protein that shuttles between the cytoplasm and nucleus” (Nucleic Acids Research, 2014).
Like-named read-outs stand apart in the source and are kept apart here.

B1: Cbp80 (1–556) (domain or fragment)
chain: MFNRKRRGDFDEDENYRDFRPRMPKRQRIPPVVQLCKEMMPDIRTIGESVKAFEDDIKFLSEAIMNEYGHEDYFNNALLSTLNAVVVEQPQKQAAIALLTMVVNSKNNVAGKSIINYFFEELQKWCKQTYNDEFKSTSNETGPWNKIKLILRFLSILSPMFLVDELINIYKSLFELSIELNNLDPGNRVPLSEAIYTNTLLNIPYLFFFNRNNDGLRTKVEELLAYVEQNYLVKTTDINLLREYNGEPPYEMVELVRVVLPNVKKALINNLEQLNELFPDWNHLLTPQTGDEGFNDALTLPSVDDLKSFVRLNKNFGSVDSMWKTPRYAFHVYLPNSAGNFETVVPISTYAGQLFNDIIIDLVESLEFNRKEVARQVITLDLFFKAGIFTEPGESIAQLIATYEENPLAPTFKIEDLAIETILGLIFKLPSVSQPFAYFYTLLVDICQNSPKAIAPVFGRAFRFFYSHLDSLDFELKLRYLDWFSIQMSNFNFSWKWNEWEDDSIKFGKYFYNPKVNFAKNLIQKELRLTSNFSEVEDSLPQEFTKYLDTSYIPRD
B2: Cbp80 (557–861) (domain or fragment)
chain: QLINYYQSLFTGYTVEEDSVRKNDLYFRQEGVPMENTVRKILDYTHKANNSREVTELESILGELKNEYGSIISDFNRFVIILLVQAVTDSGSRSLSHANKYINDLKEDLKTIFAKIELDIETKEYIIIEAVLTFWNANPQTGFLVADAFKYAGLLTSRTIFTFIFNETGLKNNGLIEATAIEAVFRNLSQQISEENESGNNFEFVFERLCTIANSTIDLLDVNADEDIEIPKVNGEMDIDDIEDDKLDLKWKYFTVIGFIKSILRRYSHEYRELADKFIANIDNAIPHESTRRTISNWIQETKEV
B3: GST-NAB2-HIS6 (natural protein, S. cerevisiae, UniProt P32505 1-525, looked up)
chain: MSQEQYTENLKVIVAEKLAGIPNFNEDIKYVAEYIVLLIVNGGTVESVVDELASLFDSVSRDTLANVVQTAFFALEALQQGESAENIVSKIRMMNAQSLGQSDIAQQQQQQQQQQQPDIAQQQPQQQPQQQPQQQPQQQPQQQPQQQPQQQPQQQPQLQPLQPQLGTQNAMQTDAPATPSPISAFSGVVNAAAPPQFAPVDNSQRFTQRGGGAVGKNRRGGRGGNRGGRNNNSTRFNPLAKALGMAGESNMNFTPTKKEGRCRLFPHCPLGRSCPHAHPTKVCNEYPNCPKPPGTCEFLHPNEDEELMKEMERTREEFQKRKADLLAAKRKPVQTGIVLCKFGALCSNPSCPFGHPTPANEDAKVIDLMWCDKNLTCDNPECRKAHSSLSKIKEVKPISQKKAAPPPVEKSLEQCKFGTHCTNKRCKYRHARSHIMCREGANCTRIDCLFGHPINEDCRFGVNCKNIYCLFRHPPGRVLPEKKGAAPNSNVPTNERPFALPENAIIENAPPQTSFTHQEQDTEMN
B4: Gle1 (recombinant) (natural protein, S. cerevisiae, UniProt Q12315 1-538, looked up)
chain: MRFVFDEVFNSDTDSPEFEETCSTTSSTSSQCPTPEPSPAIKLPSFTKVGTKKLVNESVVILDPALENALRDLNLQSKLIPINEPIVAASSIIVPHSTNMPLPRASHSSLLDNAKNSNATAPLLEAIEESFQRKMQNLVLANQKEIQSIRENKRRVEEQRKRKEEEERKRKEAEEKAKREQELLRQKKDEEERKRKEAEAKLAQQKQEEERKKIEEQNEKERQLKKEHEAKLLQQKDKLGKAVTNFDKISKMFWHYKDKIAQIKQDIVLPIKKADVNVRNLLSRHKRKINPKFGQLTNSNQQLFKIQNELTQLINDTKGDSLAYHWILNFIAKAVVHQAETEVRVKPESALPLGKLTLYLLVQFPELQELFMARLVKKCPFVIGFTCEIDTEKGRQNMGWKRNNENKWEDNTSYDERMGGILSLFAIITRLQLPQEFITTTSHPFPIALSWHILARICNTPLNLITNTHFVILGSWWDAAAVQFLQAYGNQASKLLILIGEELTSRMAEKKYVGAARLRILLEAWQNNNMESFPEMSP
B5: eIF4E with an amino-terminal His6 tag (natural protein, S. cerevisiae, UniProt P07260 1-213, looked up)
chain: MSVEEVSKKFEENVSVDDTTATPKTVLSDSAHFDVKHPLNTKWTLWYTKPAVDKSESWSDLLRPVTSFQTVEEFWAIIQNIPEPHELPLKSDYHVFRNDVRPEWEDEANAKGGKWSFQLRGKGADIDELWLRTLLAVIGETIDEDDSQINGVVLSIRKGGNKFALWTKSEDKEPLLRIGGKFKQVLKLTDDGHLEFFPHSSANGRHPQPSITL
notes: eIF4E (CDC33) of S. cerevisiae cloned into the NdeI-BamHI sites of pET15b; also called CDC33; source: E. coli (pET15b), purified on nickel-agarose
B6: GST-eIF4G1 fragment 1-596 (domain or fragment, S. cerevisiae, UniProt P39935 1-596, looked up)
chain: MTDETAHPTQSASKQESAALKQTGDDQQESQQQRGYTNYNNGSNYTQKKPYNSNRPHQQRGGKFGPNRYNNRGNYNGGGSFRGGHMGANSSNVPWTGYYNNYPVYYQPQQMAAAGSAPANPIPVEEKSPVPTKIEITTKSGEHLDLKEQHKAKLQSQERSTVSPQPESKLKETSDSTSTSTPTPTPSTNDSKASSEENISEAEKTRRNFIEQVKLRKAALEKKRKEQLEGSSGNNNIPMKTTPENVEEKGSDKPEVTEKTKPAEEKSAEPEVKQETPAEEGEQGEKGQIKEESTPKVLTFAERLKLKKQQKEREEKTEGKENKEVPVQEETKSAIESAPVPPSEQVKEETEVAETEQSNIDESATTPAIPTKSDEAEAEVEAEAGDAGTKIGLEAEIETTTDETDDGTNTVSHILNVLKDATPIEDVFSFNYPEGIEGPDIKYKKEHVKYTYGPTFLLQFKDKLNVKADAEWVQSTASKIVIPPGMGRGNRSRDSGRFGNNSSRGHDFRNTSVRNMDDRANSRTSSKRRSKRMNDDRRSNRSYTSRRDRERGSYRNEEKREDDKPKEEVAPLVPSANRWVPKFKSKKTEKKLAPDG
B7: GST-eIF4G1 fragment 542-952 (domain or fragment, S. cerevisiae, UniProt P39935 542-952, looked up)
chain: SYTSRRDRERGSYRNEEKREDDKPKEEVAPLVPSANRWVPKFKSKKTEKKLAPDGKTELLDKDEVERKMKSLLNKLTLEMFDAISSEILAIANISVWETNGETLKAVIEQIFLKACDEPHWSSMYAQLCGKVVKELNPDITDETNEGKTGPKLVLHYLVARCHAEFDKGWTDKLPTNEDGTPLEPEMMSEEYYAAASAKRRGLGLVRFIGFLYRLNLLTGKMMFECFRRLMKDLTDSPSEETLESVVELLNTVGEQFETDSFRTGQATLEGSQLLDSLFGILDNIIQTAKISSRIKFKLIDIKELRHDKNWNSDKKDNGPKTIQQIHEEEERQRQLKNNSRSNSRRTNNSSNRHSFRRDAPPASKDSFITTRTYSQRNSQRAPPPKEEPAAPTSTATNMFSALMGESDDEE
B8: Pab1 with an amino-terminal His6 tag (natural protein, S. cerevisiae, UniProt P04147 1-577, looked up)
chain: MADITDKTAEQLENLNIQDDQKQAATGSESQSVENSSASLYVGDLEPSVSEAHLYDIFSPIGSVSSIRVCRDAITKTSLGYAYVNFNDHEAGRKAIEQLNYTPIKGRLCRIMWSQRDPSLRKKGSGNIFIKNLHPDIDNKALYDTFSVFGDILSSKIATDENGKSKGFGFVHFEEEGAAKEAIDALNGMLLNGQEIYVAPHLSRKERDSQLEETKAHYTNLYVKNINSETTDEQFQELFAKFGPIVSASLEKDADGKLKGFGFVNYEKHEDAVKAVEALNDSELNGEKLYVGRAQKKNERMHVLKKQYEAYRLEKMAKYQGVNLFVKNLDDSVDDEKLEEEFAPYGTITSAKVMRTENGKSKGFGFVCFSTPEEATKAITEKNQQIVAGKPLYVAIAQRKDVRRSQLAQQIQARNQMRYQQATAAAAAAAAGMPGQFMPPMFYGVMPPRGVPFNGPNPQQMNPMGGMPKNGMPPQFRNGPVYGVPPQGGFPRNANDNNQFYQQKQRQALGEQLYKKVSAKTSNEEAAGKITGMILDLPPQEVFPLLESDELFEQHYKEASAAYESFKKEQEQQTEQA
B9: GST-eIF4G1 fragment 882-952 (domain or fragment, S. cerevisiae, UniProt P39935 882-952, looked up)
chain: RSNSRRTNNSSNRHSFRRDAPPASKDSFITTRTYSQRNSQRAPPPKEEPAAPTSTATNMFSALMGESDDEE
notes: eIF4G1 of S. cerevisiae, residues 882-952; also called 882–952 fragment; source: E. coli (pGEX-2T), purified on glutathione Sepharose; not shown: GST, N-terminal, kept
B10: 1–387-GST fragment of eIF4G1 (domain or fragment, S. cerevisiae, UniProt P39935 1-387, looked up)
chain: MTDETAHPTQSASKQESAALKQTGDDQQESQQQRGYTNYNNGSNYTQKKPYNSNRPHQQRGGKFGPNRYNNRGNYNGGGSFRGGHMGANSSNVPWTGYYNNYPVYYQPQQMAAAGSAPANPIPVEEKSPVPTKIEITTKSGEHLDLKEQHKAKLQSQERSTVSPQPESKLKETSDSTSTSTPTPTPSTNDSKASSEENISEAEKTRRNFIEQVKLRKAALEKKRKEQLEGSSGNNNIPMKTTPENVEEKGSDKPEVTEKTKPAEEKSAEPEVKQETPAEEGEQGEKGQIKEESTPKVLTFAERLKLKKQQKEREEKTEGKENKEVPVQEETKSAIESAPVPPSEQVKEETEVAETEQSNIDESATTPAIPTKSDEAEAEVEAEAGDA
notes: not among the constructs of the methods

Assays:
Ded1-His6 [1] = target: T1, Ded1-His6 (S. cerevisiae, UniProt P06634 1-604)
Ded1-His6 [2] = target: T1, Ded1-His6; experiment: cell-based or functional assay
eIF4G9 = target: T2, eIF4G9 (S. cerevisiae, UniProt P39935 160-492); experiment: pull-down; 7-methyl-GTP Sepharose beads loaded with 5 μg purified eIF4E or Cbp20, 5 μg of the purified proteins added with 50 U RNase I, 90 min on ice, TpB buffer (20 mM HEPES pH 7.9, 100 mM KCl, 2 mM MgCl2, 2 mM DTT), eluted with 1 mM 7-methyl-GTP; Coomassie-stained SDS PAGE; details: both partners purified
T2 construct: also called eIF4G9 fragment (160–492); shorten version of eIF4G1; source: E. coli (pGEX-1λT), purified
T2 sequence (looked up): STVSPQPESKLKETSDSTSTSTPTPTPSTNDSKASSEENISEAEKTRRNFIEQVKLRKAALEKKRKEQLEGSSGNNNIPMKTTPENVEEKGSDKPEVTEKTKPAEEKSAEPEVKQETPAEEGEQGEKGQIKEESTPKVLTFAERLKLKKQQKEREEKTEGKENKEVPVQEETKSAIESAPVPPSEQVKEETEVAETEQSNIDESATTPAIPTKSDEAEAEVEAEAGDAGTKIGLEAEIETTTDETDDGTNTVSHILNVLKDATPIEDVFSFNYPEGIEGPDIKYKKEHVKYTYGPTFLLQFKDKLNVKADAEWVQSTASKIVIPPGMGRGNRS

Ded1-His6 [3] = target: T1, Ded1-His6; experiment: pull-down; purified GST-eIF4G1 fragments bound to glutathione Sepharose beads, incubated with Ded1, eluted with 10 mM reduced glutathione; Coomassie-stained SDS PAGE, verified by western blot for Ded1; same results with or without RNase I or AMP-PNP; details: both partners purified

T1 sequence (P06634 whole entry): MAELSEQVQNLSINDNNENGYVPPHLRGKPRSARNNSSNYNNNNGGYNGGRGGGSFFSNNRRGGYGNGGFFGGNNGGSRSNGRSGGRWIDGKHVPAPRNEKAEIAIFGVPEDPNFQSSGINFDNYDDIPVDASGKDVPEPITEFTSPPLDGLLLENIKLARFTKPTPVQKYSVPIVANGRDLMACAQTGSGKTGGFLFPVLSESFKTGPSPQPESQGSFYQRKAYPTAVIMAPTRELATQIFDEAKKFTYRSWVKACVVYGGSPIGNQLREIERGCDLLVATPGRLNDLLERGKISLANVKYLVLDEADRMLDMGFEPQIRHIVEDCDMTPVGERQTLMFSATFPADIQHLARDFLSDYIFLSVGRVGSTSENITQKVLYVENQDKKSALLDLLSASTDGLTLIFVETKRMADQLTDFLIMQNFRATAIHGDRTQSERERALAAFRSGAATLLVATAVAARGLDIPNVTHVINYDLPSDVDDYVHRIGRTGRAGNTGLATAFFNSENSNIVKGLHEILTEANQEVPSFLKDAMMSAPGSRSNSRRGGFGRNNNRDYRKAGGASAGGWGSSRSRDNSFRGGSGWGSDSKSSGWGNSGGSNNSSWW

Row | Binder | RNA-dependent ATPase activity, % Ded1 (Ded1-His6 [2]) [%] | other results
1 | B1 |  | RNA-dependent ATPase activity, % Ded1 (Ded1-His6 [1]): 220%
2 | B2 |  | RNA-dependent ATPase activity, % Ded1 (Ded1-His6 [1]): 144%
3 | B3 | 150 | 
4 | B4 | 191 | 
5 | B5 | 105 | binding result (eIF4G9): binds
6 | B6 | 206 | 
7 | B7 | 141 | 
8 | B8 | 119 | 
9 | B9 |  | binding result (Ded1-His6 [3]): binds
10 | B10 |  | binding result (Ded1-His6 [3]): binds
